Earlier results as cited in publication PMC7300301.

Target: FcRn (Homo sapiens) (UniProt P55899)
Sequence (P55899 24-297, chain 1 of 2): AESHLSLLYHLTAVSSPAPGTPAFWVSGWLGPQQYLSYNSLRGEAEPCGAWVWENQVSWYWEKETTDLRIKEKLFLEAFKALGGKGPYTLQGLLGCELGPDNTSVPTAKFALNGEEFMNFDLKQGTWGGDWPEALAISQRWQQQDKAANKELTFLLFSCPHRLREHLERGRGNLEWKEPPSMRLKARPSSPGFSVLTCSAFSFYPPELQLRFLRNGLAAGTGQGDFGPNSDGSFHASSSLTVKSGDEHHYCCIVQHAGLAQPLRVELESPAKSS
Sequence (partner, as listed by the source, chain 2 of 2): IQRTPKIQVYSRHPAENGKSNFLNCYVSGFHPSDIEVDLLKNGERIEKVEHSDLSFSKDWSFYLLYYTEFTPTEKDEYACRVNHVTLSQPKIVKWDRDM

palivizumab
Kd: 750 nM
